The results in this text go back to publication doi:10.1101/2021.11.04.467245 (bioRxiv, 2021).

In general, stoichiometry N refers to a count of units in the complex or per binding partner.

In series [1] the target is T1, TwinStrep-BICD2 WT (mouse), Q921C5.
T1 chain: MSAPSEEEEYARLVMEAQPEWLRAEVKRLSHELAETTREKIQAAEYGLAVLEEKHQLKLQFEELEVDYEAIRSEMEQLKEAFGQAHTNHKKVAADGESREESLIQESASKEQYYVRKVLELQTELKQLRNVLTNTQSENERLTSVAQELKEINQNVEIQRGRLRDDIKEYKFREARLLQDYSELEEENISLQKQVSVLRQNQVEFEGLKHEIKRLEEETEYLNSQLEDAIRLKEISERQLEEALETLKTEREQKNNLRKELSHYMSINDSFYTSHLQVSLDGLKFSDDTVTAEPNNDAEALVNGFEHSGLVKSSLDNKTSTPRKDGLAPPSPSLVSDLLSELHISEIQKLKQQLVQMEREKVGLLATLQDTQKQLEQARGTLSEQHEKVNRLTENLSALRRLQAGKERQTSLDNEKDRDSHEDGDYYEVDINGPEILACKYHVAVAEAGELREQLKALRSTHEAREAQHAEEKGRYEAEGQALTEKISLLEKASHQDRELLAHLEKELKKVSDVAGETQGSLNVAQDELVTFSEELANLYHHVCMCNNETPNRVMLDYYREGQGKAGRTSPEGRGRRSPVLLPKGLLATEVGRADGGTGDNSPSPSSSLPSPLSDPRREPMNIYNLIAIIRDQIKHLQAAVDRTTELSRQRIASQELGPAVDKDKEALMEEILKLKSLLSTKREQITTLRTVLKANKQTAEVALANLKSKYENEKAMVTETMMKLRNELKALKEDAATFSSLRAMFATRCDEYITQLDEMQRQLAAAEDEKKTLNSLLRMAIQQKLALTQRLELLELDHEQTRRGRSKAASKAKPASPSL
Briefly: SEC-MALS. The conditions noted are these: remark: other sources report otherwise. Background: SEC sorts molecules by how far they enter the pores of the column.

The series “SEC-MALS” deals with the molecule itself. Description: SEC-MALS.

B1: TwinStrep-BICD2 WT, Q921C5 1-820 (natural protein)
chain: MSAPSEEEEYARLVMEAQPEWLRAEVKRLSHELAETTREKIQAAEYGLAVLEEKHQLKLQFEELEVDYEAIRSEMEQLKEAFGQAHTNHKKVAADGESREESLIQESASKEQYYVRKVLELQTELKQLRNVLTNTQSENERLTSVAQELKEINQNVEIQRGRLRDDIKEYKFREARLLQDYSELEEENISLQKQVSVLRQNQVEFEGLKHEIKRLEEETEYLNSQLEDAIRLKEISERQLEEALETLKTEREQKNNLRKELSHYMSINDSFYTSHLQVSLDGLKFSDDTVTAEPNNDAEALVNGFEHSGLVKSSLDNKTSTPRKDGLAPPSPSLVSDLLSELHISEIQKLKQQLVQMEREKVGLLATLQDTQKQLEQARGTLSEQHEKVNRLTENLSALRRLQAGKERQTSLDNEKDRDSHEDGDYYEVDINGPEILACKYHVAVAEAGELREQLKALRSTHEAREAQHAEEKGRYEAEGQALTEKISLLEKASHQDRELLAHLEKELKKVSDVAGETQGSLNVAQDELVTFSEELANLYHHVCMCNNETPNRVMLDYYREGQGKAGRTSPEGRGRRSPVLLPKGLLATEVGRADGGTGDNSPSPSSSLPSPLSDPRREPMNIYNLIAIIRDQIKHLQAAVDRTTELSRQRIASQELGPAVDKDKEALMEEILKLKSLLSTKREQITTLRTVLKANKQTAEVALANLKSKYENEKAMVTETMMKLRNELKALKEDAATFSSLRAMFATRCDEYITQLDEMQRQLAAAEDEKKTLNSLLRMAIQQKLALTQRLELLELDHEQTRRGRSKAASKAKPASPSL
B1 had a stoichiometry N in series [1] of 2.

B2: TwinStrep-BICD2 S102D (natural protein)
chain: MSAPSEEEEYARLVMEAQPEWLRAEVKRLSHELAETTREKIQAAEYGLAVLEEKHQLKLQFEELEVDYEAIRSEMEQLKEAFGQAHTNHKKVAADGESREEDLIQESASKEQYYVRKVLELQTELKQLRNVLTNTQSENERLTSVAQELKEINQNVEIQRGRLRDDIKEYKFREARLLQDYSELEEENISLQKQVSVLRQNQVEFEGLKHEIKRLEEETEYLNSQLEDAIRLKEISERQLEEALETLKTEREQKNNLRKELSHYMSINDSFYTSHLQVSLDGLKFSDDTVTAEPNNDAEALVNGFEHSGLVKSSLDNKTSTPRKDGLAPPSPSLVSDLLSELHISEIQKLKQQLVQMEREKVGLLATLQDTQKQLEQARGTLSEQHEKVNRLTENLSALRRLQAGKERQTSLDNEKDRDSHEDGDYYEVDINGPEILACKYHVAVAEAGELREQLKALRSTHEAREAQHAEEKGRYEAEGQALTEKISLLEKASHQDRELLAHLEKELKKVSDVAGETQGSLNVAQDELVTFSEELANLYHHVCMCNNETPNRVMLDYYREGQGKAGRTSPEGRGRRSPVLLPKGLLATEVGRADGGTGDNSPSPSSSLPSPLSDPRREPMNIYNLIAIIRDQIKHLQAAVDRTTELSRQRIASQELGPAVDKDKEALMEEILKLKSLLSTKREQITTLRTVLKANKQTAEVALANLKSKYENEKAMVTETMMKLRNELKALKEDAATFSSLRAMFATRCDEYITQLDEMQRQLAAAEDEKKTLNSLLRMAIQQKLALTQRLELLELDHEQTRRGRSKAASKAKPASPSL
For the molecule B2, the “stoichiometry N” value in the series “SEC-MALS” turned out to be 2.
